From patent US20120251554A1 (TECHNISCHE UNIVERSIT T DRESDEN, published 2012)
Blank lines part the entries; values can stand above or below the binder they belong to.

What was measured:
human CD33 [1] = biological target: T1, human CD33 (human, UniProt P20138 18-364); assay: cell-based or functional assay
T1 construct: whole, on cells; also called CD33+-Hek293T cells; Hek293T-CD33

human CD33 [2] = biological target: T1, human CD33; assay: method not stated (sentence refers to FIG. 3, flow cytometry)

T1 sequence (P20138 18-364): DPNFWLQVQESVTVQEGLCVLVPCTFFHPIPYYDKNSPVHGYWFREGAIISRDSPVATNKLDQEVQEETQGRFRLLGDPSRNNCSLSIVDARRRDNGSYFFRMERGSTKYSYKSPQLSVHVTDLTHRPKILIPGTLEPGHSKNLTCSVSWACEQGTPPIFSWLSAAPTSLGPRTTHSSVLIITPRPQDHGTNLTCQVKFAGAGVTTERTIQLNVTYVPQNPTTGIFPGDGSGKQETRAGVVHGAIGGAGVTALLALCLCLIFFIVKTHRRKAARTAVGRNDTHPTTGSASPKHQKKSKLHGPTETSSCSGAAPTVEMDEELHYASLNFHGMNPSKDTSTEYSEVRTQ

specific lysis of the CD33+-Hek293T cells (51Cr release assay, 20-hour in vitro culture) (human CD33 [1]): < 86%
B1: CD33-L18-GFP-L18-CD3 (bispecific antibody, part only; not given: anti-CD3 scFv, GFP, linkers, not shown: small tags and cut ends; large carriers)
chain, part: EVKLQESGPELVKPGASVKMSCKASGYKFTDYVVHWLKQKPGQGLEWIGYINPYNDGTKYNEKFKGKATLTSDKSSSTAYMEVSSLTSEDSAVYYCARDYRYEVYGMDYWGQGTSVTVSSDIVLTQSPTIMSASPGERVTMTCTASSSVNYIHWYQQKSGDSPKRWIFDTSKVASGVPARFSGSGSGTSYSLTISTMEAEDAATYYCQQWRSYPLTFGDGTRLELKRADAAPTVS

Kd (human CD33 [2]): ~0.1 nM
B2: anti-CD33DRB1 (antibody, V domains shown)
VH: EVKLQESGAELVRPGVSVKISCKGSGYTFTDYVLHWVKQSHAKSLEWIGLINTYNGDVRYNQKFMGKATMTIEKSSSTAYMELVRLTSEDSAIYYCARDYRYEYYAMDYWGQGTSVTVSS
VL: DIVLTQSPAIMSASPGEKVTMTCSANSSVSYIHWYQQKSGTSPKRWIFDTSKLASGVPARFSGSGSGTSYSLTISTMEAEDAATYYCQQWTSHPLTFGTGTKLQLKR
notes: Murine monoclonal antibody from a hybridoma (tested as hybridoma supernatant); also called monoclonal anti-CD33DRB1; anti-CD33DRB antibody

Kd (human CD33 [2]): ~0.1 nM
B3: anti-CD33DRB2 (antibody, V domains shown)
VH: EVKLQESGPELVKPGASVKMSCKASGYKFTDYVVHWLKQKPGQGLEWIGYINPYNDGTKYNEKFKGKATLTSDKSSSTAYMEVSSLTSEDSAVYYCARDYRYEVYGMDYWGQGTSVTVSS
VL: DIVLTQSPTIMSASPGERVTMTCTASSSVNYIHWYQQKSGDSPKRWIFDTSKVASGVPARFSGSGSGTSYSLTISTMEAEDAATYYCQQWRSYPLTFGDGTRLELKR
notes: Murine monoclonal antibody from a hybridoma; also called monoclonal anti-CD33DRB2; anti-CD33DRB antibody
